The source of these data is CN114651011A (dated 2022).

The target in test [1] is T1, 人CD43 (human CD43, UMG1 epitope), endogenous on human cells, cell lines and tissues (human, UniProt P16150 20-400).
T1 construct: The cells carry the natural protein; also called UMG1表位; UMG1抗原
T1 sequence: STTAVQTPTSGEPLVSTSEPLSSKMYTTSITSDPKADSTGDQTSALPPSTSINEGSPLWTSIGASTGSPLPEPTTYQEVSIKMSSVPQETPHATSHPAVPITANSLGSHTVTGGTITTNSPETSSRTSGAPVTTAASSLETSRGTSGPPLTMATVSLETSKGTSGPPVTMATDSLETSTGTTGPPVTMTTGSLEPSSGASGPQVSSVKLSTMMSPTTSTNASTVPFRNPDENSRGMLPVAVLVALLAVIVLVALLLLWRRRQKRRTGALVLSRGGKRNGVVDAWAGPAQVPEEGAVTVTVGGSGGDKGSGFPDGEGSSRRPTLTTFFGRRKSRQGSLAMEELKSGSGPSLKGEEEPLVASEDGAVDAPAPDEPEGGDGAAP
Briefly: flow cytometry on PBMC of healthy donors, 1 μg/ml, FITC secondary antibody. (In general: In flow cytometry, cells or beads pass a laser one at a time.)

The target of test [2] is T1, 人CD43 (human CD43, UMG1 epitope), …. The experiment in a line: immunofluorescence on fixed THP-1-derived macrophages without or with PANC1 cells.
The target of test [3] is T2, 重组人CD43细胞外部分 (aa 20-253), produced in E. coli, not glycosylated (human, UniProt P16150 20-253).
T2 construct: also called 重组人CD43分析物(aa 20-253); CD43的无糖基化细胞外部分
T2 sequence: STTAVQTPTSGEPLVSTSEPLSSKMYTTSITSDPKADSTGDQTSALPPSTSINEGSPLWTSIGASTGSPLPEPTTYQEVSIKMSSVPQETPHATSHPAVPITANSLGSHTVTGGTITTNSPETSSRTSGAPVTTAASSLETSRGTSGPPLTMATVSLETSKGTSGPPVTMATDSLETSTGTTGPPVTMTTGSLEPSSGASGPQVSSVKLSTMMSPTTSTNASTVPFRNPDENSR
The experiment in a line: SPRi (PlexArray HT), antibody printed on the gold chip, recombinant CD43 aa 20-253 from E. coli as analyte, 25°C.

Test [4] addresses T3, CD43#6 (CD43 with aa 64 to 78 deleted), expressed in HEK293T cells (human, UniProt P16150 20-400).
T3 construct: also called CD43克隆#6; 第五CD43变体; not shown: His tag (and GFP by the name of the vector pLenti-CMV-(insert)-Histag-GFP-2A-Puro)
T3 sequence: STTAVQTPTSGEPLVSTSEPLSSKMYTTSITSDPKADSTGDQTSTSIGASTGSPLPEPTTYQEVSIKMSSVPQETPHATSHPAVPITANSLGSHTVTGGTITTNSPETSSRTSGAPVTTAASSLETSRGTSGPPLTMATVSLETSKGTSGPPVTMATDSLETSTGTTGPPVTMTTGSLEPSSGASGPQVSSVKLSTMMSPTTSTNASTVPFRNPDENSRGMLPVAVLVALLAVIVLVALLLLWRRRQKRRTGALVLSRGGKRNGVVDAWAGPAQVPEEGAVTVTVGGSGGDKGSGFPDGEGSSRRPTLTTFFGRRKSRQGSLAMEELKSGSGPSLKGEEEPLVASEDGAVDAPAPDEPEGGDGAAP
Briefly: FACS with h-UMG1-PE on GFP-positive transfected HEK293T cells.

The target in test [5] is T4, 野生型肽 PPSTSINEGSPLWTS (aa 66-80 of human CD43), peptide of the epitope substitution scan (human).
T4 construct: also called wild-type peptide; 人CD43的线性表位，用于取代筛选
T4 peptide: PPSTSINEGSPLWTS
The experiment in a line: substitution scan peptide microarray, antibody at 1, 10, 100 and 250 μg/ml.

Test [6] has as its target T1, 人CD43 (human CD43, UMG1 epitope), …. The experiment in a line: flow cytometry (MFI) on HPB-ALL and H9 cells, 1 μg/ml, FITC mouse anti-human IgG.

Substitutions are numbered along the chain they refer to.

B1: 单克隆抗体UMG1 (murine anti-human CD43 antibody produced by the hybridoma deposited as ICLC PD n°16001) (antibody, V domains shown)
VH: DVQLVESGGGLVQPGGSRKLSCVASGFTFSSFGMHWVRQAPEKGLEWVAYISSGSGNFYYVDTVKGRFTISRDNPKNTLFLQMTSLRSEDTAMYYCARSTYYHGSRGAMDYWGQGTSVTVSS
VL: QIALTQSPAIMSASPGEKVTMTCSASSSVSSMYWYQLKPGSSPRLLIYDTSKMASGVPIRFSGSGSGTSFSLTVSRVEAEDAATYYCQQWSSYPPITFGAGSKLELK
notes: Murine antibody, kappa light chain; the negative control is a murine IgG1; also called m-UMG1; mUMG1
In the case of B1, the binding result in test [1] is listed as “binds”.

B2: ch-UMG1 (嵌合抗体, murine UMG1 variable regions on human IgG1 constant regions) (antibody, V domains shown)
VH: B1 VH
VL: QIALTQSPAIMSASPGEKVTMTCSASSSVSSMYWYQLKPGSSPRLLIYDTSKMASGVPIRFSGSGSGTSFSLTVSRVEAEDAATYYCQQWSSYPPITFGAGSKLELKR
notes: also called UMG1-CH; 嵌合单克隆抗体
For the molecule B2, the binding result in test [2] was “binds”.

B3: h-UMG1 (人源化UMG1单克隆抗体, H3-L4) (antibody, human IgG1, kappa, V domains shown)
VH: EVQLVESGGGLVQPGGSLRLSCVASGFTFSSFGMHWVRQAPGKGLEWVAYISSGSGNFYYVDTVKGRFTISRDNAKNSLYLQMNSLRAEDTAVYYCARSTYYHGSRGAMDYWGQGTLVTVSS
VL: QVVMTQSPAFLSVTPGEKVTITCSASSSVSSMYWYQLKPDQAPKLLIYDTSKMASGVPIRFSGSGSGTDFTFTVSSVEAEDAATYYCQQWSSYPPITFGGGTKVEIKR
notes: IgG1; also called h-UMG1单抗; 人源化单克隆抗CD43抗体
Regarding B3, the Kd – broadly, the concentration at which binding is half-saturated – in test [3] worked out at 99.4 nM. The binding result was “no binding (tested: 1μg/ml)” in test [4] and “binds” in test [5].

B4: 人源化UMG1抗体 H2-L1 (antibody, IgG1, V domains shown)
VH: B3 VH with A49S
VL: EIVLTQSPATLSLSPGERATLSCSASSSVSSMYWYQQKPGLAPRLLIYDTSKMASGIPDRFSGSGSGTDFTLTISRLEPEDFAVYYCQQWSSYPPITFGQGTRLEIK
notes: one of the 16 combinations of H1-4 with L1-4
In the case of B4, the binding result in test [6] was “binds”.

B5: 人源化UMG1抗体 H2-L3 (antibody, IgG1, V domains shown)
VH: B3 VH with A49S
VL: QVVMTQSPAFLSVTPGEKVTITCSASSSVSSMYWYQQKPDQAPKLLIYDTSKMASGVPSRFSGSGSGTDFTFTISSLEAEDAATYYCQQWSSYPPITFGGGTKVEIK
notes: as for B4
For B5, the binding result in test [6] is “binds”.

B6: 人源化UMG1抗体 H1-L1 (antibody, IgG1, V domains shown)
VH: B3 VH with V23A, A49S
VL: B4 VL
notes: as for B4
Turning to B6, in test [6], the binding result is given as “binds”.

B7: 人源化UMG1抗体 H3-L1 (antibody, IgG1, V domains shown)
VH: B3 VH
VL: B4 VL
notes: as for B4
On to B7, for which the binding result in test [6] was “binds”.

B8: 人源化UMG1抗体 H3-L3 (antibody, IgG1, V domains shown)
VH: B3 VH
VL: B5 VL
notes: as for B4
B8: the binding result in test [6] is “binds”.

B9: 人源化UMG1抗体 H1-L2 (antibody, IgG1, V domains shown)
VH: B3 VH with V23A, A49S
VL: B4 VL with V3A, Q37L, D59I, I74V, L77V
notes: as for B4
Consider B9, for which the binding result in test [6] is given as “binds”.

B10: 人源化UMG1抗体 H4-L4 (antibody, IgG1, V domains shown)
VH: B3 VH with E1Q, L11V, A75S, S78T
VL: B5 VL with Q37L, S59I, I74V, L77V
notes: as for B4
As for B10, the binding result in test [6] is recorded as “binds”.

B11: 人源化UMG1抗体 H4-L1 (antibody, IgG1, V domains shown)
VH: B3 VH with E1Q, L11V, A75S, S78T
VL: B4 VL
notes: as for B4
Regarding B11, the binding result in test [6] was “binds”.

B12: 人源化UMG1抗体 H2-L4 (antibody, IgG1, V domains shown)
VH: B3 VH with A49S
VL: B5 VL with Q37L, S59I, I74V, L77V
notes: as for B4
For the molecule B12, the binding result in test [6] is on record as “binds”.

B13: 人源化UMG1抗体 H1-L4 (antibody, IgG1, V domains shown)
VH: B3 VH with V23A, A49S
VL: B5 VL with Q37L, S59I, I74V, L77V
notes: as for B4
Turning to B13, the binding result in test [6] is listed as “binds”.

B14: 人源化UMG1抗体 H4-L3 (antibody, IgG1, V domains shown)
VH: B3 VH with E1Q, L11V, A75S, S78T
VL: B5 VL
notes: as for B4
Regarding B14, in test [6], the binding result is “binds”.

B15: 人源化UMG1抗体 H4-L2 (antibody, IgG1, V domains shown)
VH: B3 VH with E1Q, L11V, A75S, S78T
VL: B4 VL with V3A, Q37L, D59I, I74V, L77V
notes: as for B4
B15: the binding result in test [6] is “binds”.

B16: 人源化UMG1抗体 H2-L2 (antibody, IgG1, V domains shown)
VH: B3 VH with A49S
VL: B4 VL with V3A, Q37L, D59I, I74V, L77V
notes: as for B4
Regarding B16, in test [6], the binding result was “binds”.

B17: 人源化UMG1抗体 H1-L3 (antibody, IgG1, V domains shown)
VH: B3 VH with V23A, A49S
VL: B5 VL
notes: as for B4
On to B17, for which the binding result in test [6] is on record as “binds”.

B18: 人源化UMG1抗体 H3-L2 (antibody, IgG1, V domains shown)
VH: B3 VH
VL: B4 VL with V3A, Q37L, D59I, I74V, L77V
notes: as for B4
For B18, the binding result in test [6] is recorded as “binds”.
